The target of series [1] is apurinic/apyrimidinic endonuclease 1 (APE1) (UniProt P27695 1-318). The series can be described thus: BLI; BLI (Octet QKe), 20 °C: polβ, APE1, LIGIIIα in 20 mM Hepes pH 7.4, 200 mM NaCl, 0.5% BSA, 0.05% Tween 20; LIG1 in 50 mM Tris-HCl pH 7.5, 100 mM KCl, 1 mM DTT; no Mg2+ listed. The settings on record: protein: recombinant, tags: His, strands 1 and 2 pair with strand 3, blunt outer ends.

The target of series [2] is T1, DNA polymerase beta (polβ) (UniProt P06746 1-335). The series can be described thus: BLI; range given jointly for polβ, LIG1 and LIGIIIα; individual value only in figure; BLI (Octet QKe), 20 °C: polβ, APE1, LIGIIIα in 20 mM Hepes pH 7.4, 200 mM NaCl, 0.5% BSA, 0.05% Tween 20; LIG1 in 50 mM Tris-HCl pH 7.5, 100 mM KCl, 1 mM DTT; n. Background: Biolayer interferometry detects binding as a change in optical thickness at a sensor tip.

Series [3] concerns the target T2, DNA ligase IIIα (LIGIIIα) (UniProt P49916-3 1-922).
T2 sequence: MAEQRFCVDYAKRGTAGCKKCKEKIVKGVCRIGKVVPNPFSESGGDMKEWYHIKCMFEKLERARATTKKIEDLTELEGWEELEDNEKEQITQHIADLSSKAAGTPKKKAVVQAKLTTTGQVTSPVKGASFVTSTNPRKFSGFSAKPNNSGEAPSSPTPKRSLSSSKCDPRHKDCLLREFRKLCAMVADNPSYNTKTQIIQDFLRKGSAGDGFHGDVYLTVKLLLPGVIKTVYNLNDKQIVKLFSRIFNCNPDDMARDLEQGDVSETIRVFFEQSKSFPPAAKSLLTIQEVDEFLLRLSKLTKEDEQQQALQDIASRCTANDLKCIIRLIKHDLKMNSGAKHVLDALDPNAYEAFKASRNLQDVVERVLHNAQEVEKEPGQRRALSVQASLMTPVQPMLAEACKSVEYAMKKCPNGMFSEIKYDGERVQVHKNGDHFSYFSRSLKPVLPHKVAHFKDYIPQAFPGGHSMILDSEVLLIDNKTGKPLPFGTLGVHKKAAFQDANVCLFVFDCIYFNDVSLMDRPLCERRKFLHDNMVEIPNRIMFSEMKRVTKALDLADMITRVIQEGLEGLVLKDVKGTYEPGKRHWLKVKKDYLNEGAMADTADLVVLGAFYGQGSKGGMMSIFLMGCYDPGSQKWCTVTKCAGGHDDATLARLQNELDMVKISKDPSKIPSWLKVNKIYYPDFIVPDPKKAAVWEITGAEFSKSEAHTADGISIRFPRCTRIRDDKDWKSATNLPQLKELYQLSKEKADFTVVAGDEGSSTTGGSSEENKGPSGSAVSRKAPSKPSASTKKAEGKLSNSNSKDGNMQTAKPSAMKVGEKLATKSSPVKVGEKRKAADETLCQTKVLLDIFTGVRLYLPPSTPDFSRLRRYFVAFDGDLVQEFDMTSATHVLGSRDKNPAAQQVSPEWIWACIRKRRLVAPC
The experiment in a line: BLI; range given jointly for polβ, LIG1 and LIGIIIα; individual value only in figure; BLI (Octet QKe), 20 °C: polβ, APE1, LIGIIIα in 20 mM Hepes pH 7.4, 200 mM NaCl, 0.5% BSA, 0.05% Tween 20; LIG1 in 50 mM Tris-HCl pH 7.5, 100 mM KCl, 1 mM DTT; no Mg2+ listed. Particulars: protein: recombinant; tags: His; label: 3'-biotin on S2; 1-nt gap opposite template C; strands 1 and 2 pair with strand 3; blunt outer ends.

For series [4], the target named is T3, DNA ligase 1 (LIG1) (UniProt P18858 1-919). The series can be described thus: BLI; range given jointly for polβ, LIG1 and LIGIIIα; LIG1 buffer; BLI (Octet QKe), 20 °C: polβ, APE1, LIGIIIα in 20 mM Hepes pH 7.4, 200 mM NaCl, 0.5% BSA, 0.05% Tween 20; LIG1 in 50 mM Tris-HCl pH 7.5, 100 mM KCl, 1 mM DTT; no Mg2+ listed. Particulars: protein: recombinant; tags: His; label: 3'-biotin on S2; 1-nt gap opposite template C; strands 1 and 2 pair with strand 3; blunt outer ends.

For series [5], the target named is T2, DNA ligase IIIα (LIGIIIα). The experiment in a line: BLI; BLI (Octet QKe), 20 °C: polβ, APE1, LIGIIIα in 20 mM Hepes pH 7.4, 200 mM NaCl, 0.5% BSA, 0.05% Tween 20; LIG1 in 50 mM Tris-HCl pH 7.5, 100 mM KCl, 1 mM DTT; no Mg2+ listed. The settings on record: protein: recombinant; tags: His; label: 3'-biotin on strand 2; nicked duplex; strands 1 and 2 pair with strand 3; blunt outer ends.

Series [6] has as its target T1, DNA polymerase beta (polβ). The experiment in a line: BLI; BLI (Octet QKe), 20 °C: polβ, APE1, LIGIIIα in 20 mM Hepes pH 7.4, 200 mM NaCl, 0.5% BSA, 0.05% Tween 20; LIG1 in 50 mM Tris-HCl pH 7.5, 100 mM KCl, 1 mM DTT; n.
For series [7], the target named is T3, DNA ligase 1 (LIG1). The experiment in a line: BLI; LIG1 buffer; BLI (Octet QKe), 20 °C: polβ, APE1, LIGIIIα in 20 mM Hepes pH 7.4, 200 mM NaCl, 0.5% BSA, 0.05% Tween 20; LIG1 in 50 mM Tris-HCl pH 7.5, 100 mM KCl, 1 mM DTT; no Mg2+ listed. Particulars: protein: recombinant; tags: His; label: 3'-biotin on strand 2; nicked duplex; strands 1 and 2 pair with strand 3; blunt outer ends.

B1: one-nucleotide gap DNA (template C) (dsDNA)
DNA 1: CATGGGCGGCATGAACC
DNA 2: GAGGCCCATCCTCACC
DNA 3: GGTGAGGATGGGCCTCCGGTTCATGCCGCCCATG
modifications: 5'-phosphate on S2 at the gap; 3'-OH on S1
Consider B1, for which the Kd (in general, the free concentration of one partner at which half of the binding sites on the other are occupied at equilibrium, for simple one-to-one binding) in series [1] (label: 3'-biotin on S2, 1-nt gap opposite template C) was 70 nM; in series [2], about 4.9 nM; in series [3], about 4.9 nM; in the series with DNA ligase 1 (LIG1) [4] it was about 4.9 nM.

B2: nick DNA (3'-dG:C) (dsDNA)
DNA 1: CATGGGCGGCATGAACCG
DNA 2: GAGGCCCATCCTCACC
DNA 3: GGTGAGGATGGGCCTCCGGTTCATGCCGCCCATG
modifications: 5'-phosphate on strand 2 at the nick; 3'-OH on strand 1
Take B2: the Kd is 200 nM in series [1] (label: 3'-biotin on strand 2, nicked duplex); about 7 nM in series [5]; about 20 nM in series [6]; 3 nM with DNA ligase 1 (LIG1) [7].

Values taken from publication PMC11176775, “Impact of DNA ligase 1 and IIIα interactions with APE1 and polβ on the efficiency of base excision repair pathway at the downstream steps”.
